Blank lines part the entries; values can stand above or below the molecule they belong to.
Assays:
porcine pancreas trypsin [1] = biological target: T1, porcine pancreas trypsin (Sus scrofa, UniProt P00761); assay: Digestion of labelled protein with trypsin, differential pulse voltammetry; format: biochemical
T1 construct: purchased Sigma; host or cells: porcine pancreas
Method: (§1) Protease assays were performed as follows unless stated otherwise. […] Samples were incubated at 37° C. for 1 hour.
A digestion of Fc-BSA with trypsin was carried out as described above. […] The positive reaction has a peak position of 435 mV and a peak height of 4.58×10^−7 A; the no trypsin control reaction has a peak position of 432 mV and a peak height of 2.55×10^−8 A.
A digestion of unlabelled BSA with trypsin was carried out in the same manner as for the labelled molecules as described above. The differential pulse voltammogram results are shown in FIG. 10 in which (a) is the trace for a no-trypsin control reaction and (b) is the trace for trypsin BSA reaction.
A digestion of FcU-BSA with trypsin was carried out as described above. […] The positive reaction has a peak position of 97 mV and a peak height of 5.01×10^−7 A; there was no peak in the no-trypsin control reaction. […]
Five digestions of Fc-BSA with trypsin were carried out using the protocol described above. As described in the general protocol, 2 μl of enzyme was used for each 200 μl reaction; for reaction (i) 10 mg/ml enzyme solution was used; reaction (ii): 1 mg/ml; reaction (iii) 0.1 mg/ml; reaction (iv) 0.01 mg/ml and reaction (v) was a no-trypsin control. The differential pulse voltammogram results are shown in FIG. 14 with baseline correction.
Five digestions of Fc-BSA with trypsin were carried out using the protocol described above. In reaction (i) the incubation at 37° was carried out for 60 minutes, in reaction (ii) for 15 minutes, in reaction (iii) for 5 minutes, in reaction (iv) for 2 minutes and reaction (v) was a 0 minutes no-trypsin control. The differential pulse voltammogram results are shown in FIG. 15 with baseline correction.

papain = biological target: T2, papain (Carica papaya, UniProt P00784); assay: Amperometric analysis of papain digestion; format: biochemical; conditions: amperometric time course trace, FIG. 18
T2 construct: purchased Sigma; host or cells: papaya latex
T2 sequence (P00784 134-345): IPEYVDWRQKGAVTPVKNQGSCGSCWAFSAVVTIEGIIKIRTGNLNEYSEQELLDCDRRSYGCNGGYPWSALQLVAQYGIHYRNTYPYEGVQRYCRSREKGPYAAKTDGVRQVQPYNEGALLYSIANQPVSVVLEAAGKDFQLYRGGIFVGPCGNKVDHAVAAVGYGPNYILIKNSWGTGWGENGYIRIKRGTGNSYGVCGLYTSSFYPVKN
Method: (§2) Four digestion reactions were carried out with real-time amperometric analysis. […] Tryspin was resuspended in HCl (1 mM, pH 3.0), papain and carboxypeptidase were resuspended in NaCl (100 mM). […] The amperometry conditions were as set out in Tables 2 and 3.
(§3) In FIG. 18, there is shown the amperometric time course trace for the papain digestion of FcU-BSA. […] As the movement of the species present in the solution reaches a steady state, the current response appears to decay. […] The amperometric time course trace for the trypsin digestion of FcU-BSA is not illustrated in the drawings but was analogous.

papaya latex papain = biological target: T3, papaya latex papain (Carica papaya, UniProt P00784); assay: Digestion of FcU-BSA with papain, differential pulse voltammetry; format: biochemical
T3 construct: purchased Sigma; host or cells: papaya latex
T3 sequence (P00784 134-345): T2 sequence (P00784 134-345)
Method: as §1
A digestion of FcU-BSA with papain was carried out as described above.

trypsin = biological target: T4, trypsin (Sus scrofa, UniProt P00761); assay: Amperometric analysis of trypsin digestion; format: biochemical, porcine; conditions: amperometric time course trace
T4 construct: purchased Sigma; host or cells: porcine pancreas
Method: as §2
In FIG. 17, there is shown the amperometric time course trace for the trypsin digestion of Fc-BSA. […] As the movement of the species present in the solution reaches a steady state, the current response appears to decay.
as §3

[2] = biological target: porcine pancreas trypsin (1120 BAEE units/mg solid) (porcine) (UniProt P00761); assay: cell-based or functional assay
porcine pancreas trypsin [3] = biological target: T1, porcine pancreas trypsin; assay: Effect of a protease inhibitor on electrochemical marker signal (trypsin digestion of Fc-BSA); format: biochemical
Method: as §1
Five digestions of Fc-BSA with trypsin were carried out using the protocol described above. In addition, soybean trypsin inhibitor was added to reaction mixtures […]. Solutions of the soybean trypsin inhibitor were prepared by resuspending inhibitor as supplied in deionised water to a concentration of 10 mg/ml and 1 mg/ml as appropriate. No inhibitor was added to reaction (i); 0.5 μl of 1 mg/ml inhibitor solution was added to reaction (ii); […] of 10 mg/ml inhibitor was added to reaction (iii); 5 μl of 10 mg/ml inhibitor solution was added to reaction (iv) and 5 μl of 10 mg/ml inhibitor solution was added to a no-trypsin control reaction. The differential pulse voltammogram results are shown in FIG. 16 with baseline correction.

[4] = biological target: T5, type I-S soybean trypsin inhibitor, P01070
T5 chain: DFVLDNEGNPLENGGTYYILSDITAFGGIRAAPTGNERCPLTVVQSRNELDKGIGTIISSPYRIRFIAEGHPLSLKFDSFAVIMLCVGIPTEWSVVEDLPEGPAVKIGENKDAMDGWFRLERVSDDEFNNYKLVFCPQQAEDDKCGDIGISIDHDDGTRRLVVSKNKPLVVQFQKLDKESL

[5] = positive reaction, 37° C. for 1 hour
[6] = positive reaction, 2 μl enzyme (10 mgml^−1), 37° C. for 1 hour
[7] = no-trypsin control reaction with 5 μl of 10 mg/ml inhibitor solution
[8] = reaction (ii): 0.5 μl of 1 mg/ml inhibitor solution
[9] = reaction (iii): 0.51 of 10 mg/ml inhibitor
[10] = reaction (iv): 5 μl of 10 mg/ml inhibitor solution

peak height, differential pulse voltammogram of trypsin digestion of Fc-BSA; reaction (ii), 0.5 ul of 1 mg/ml inhibitor solution in the 200 ul reaction (no-inhibitor reaction (i): 2.56x10^-7 A) [2]: 2.12e-07 A
Molecule: type I-S soybean trypsin inhibitor (from UniProt P01070 25-205)

peak height (porcine pancreas trypsin [3]; [7]): 2.75×10^−8 A
peak position (porcine pancreas trypsin [3]; [7]): 429 mV
peak height (porcine pancreas trypsin [3]; [8]): 2.12×10^−7 A
peak position (porcine pancreas trypsin [3]; [8]): 435 mV
peak height (porcine pancreas trypsin [3]; [9]): 1.60×10^−7 A
peak position (porcine pancreas trypsin [3]; [9]): 430 mV
peak height (porcine pancreas trypsin [3]; [10]): 5.33×10^−8 A
peak position (porcine pancreas trypsin [3]; [10]): 426 mV
B1: soybean trypsin inhibitor: type I-S soybean trypsin inhibitor obtained from Sigma (protein)
chain: T5 chain

Second part, the molecule before the results:

Molecule: unlabelled BSA: Bovine serum albumin (lyophilised powder, approx. 99%) from Sigma, unlabelled control substrate [reference compound]
peaks in differential pulse voltammogram (porcine pancreas trypsin [1]; unlabelled substrate, trypsin reaction and no-trypsin control): No peaks were found

Molecule: FcU-BSA: Bovine serum albumin labelled with 4-(3′-ferrocenylureido)-1-benzoyl groups
faradaic current response over time after addition of the enzyme (papain): increase in current
peak (papaya latex papain; no-papain control reaction): no peak was found
peak height (papaya latex papain; [5]): 2.62×10^−7 A
peak position (papaya latex papain; [5]): 93 mV
peak height (porcine pancreas trypsin [1]; no-trypsin control reaction): no peak
peak height (porcine pancreas trypsin [1]; [6]): 5.01×10^−7 A
peak position (porcine pancreas trypsin [1]; [6]): 97 mV
faradaic current response over time after addition of the enzyme (trypsin): analogous

B2: porcine pancreas trypsin (1120 BAEE units/mg solid) (protein)
chain: IVGGYTCAANSIPYQVSLNSGSHFCGGSLINSQWVVSAAHCYKSRIQVRLGEHNIDVLEGNEQFINAAKIITHPNFNGNTLDNDIMLIKLSSPATLNSRVATVSLPRSCAAAGTECLISGWGNTKSSGSSYPSLLQCLKAPVLSDSSCKSSYPGQITGNMICVGFLEGGKDSCQGDSGGPVVCNGQLQGIVSWGYGCAQKNKPGVYTKVCNYVNWIQQTIAAN
magnitude of signal in the differential pulse voltammogram of trypsin digestion of Fc-BSA [4]: the magnitude of signal in the differential pulse voltammogram is strongly dependent on the concentration of inhibitor present in the digestion experiment
